# Laboratory results: PMC6085827
# Target: S-tagged long RECK isoform (human) (UniProt O95980)
# Assay: co-IP
# Sequence of UniProt O95980 (O95980 23-942): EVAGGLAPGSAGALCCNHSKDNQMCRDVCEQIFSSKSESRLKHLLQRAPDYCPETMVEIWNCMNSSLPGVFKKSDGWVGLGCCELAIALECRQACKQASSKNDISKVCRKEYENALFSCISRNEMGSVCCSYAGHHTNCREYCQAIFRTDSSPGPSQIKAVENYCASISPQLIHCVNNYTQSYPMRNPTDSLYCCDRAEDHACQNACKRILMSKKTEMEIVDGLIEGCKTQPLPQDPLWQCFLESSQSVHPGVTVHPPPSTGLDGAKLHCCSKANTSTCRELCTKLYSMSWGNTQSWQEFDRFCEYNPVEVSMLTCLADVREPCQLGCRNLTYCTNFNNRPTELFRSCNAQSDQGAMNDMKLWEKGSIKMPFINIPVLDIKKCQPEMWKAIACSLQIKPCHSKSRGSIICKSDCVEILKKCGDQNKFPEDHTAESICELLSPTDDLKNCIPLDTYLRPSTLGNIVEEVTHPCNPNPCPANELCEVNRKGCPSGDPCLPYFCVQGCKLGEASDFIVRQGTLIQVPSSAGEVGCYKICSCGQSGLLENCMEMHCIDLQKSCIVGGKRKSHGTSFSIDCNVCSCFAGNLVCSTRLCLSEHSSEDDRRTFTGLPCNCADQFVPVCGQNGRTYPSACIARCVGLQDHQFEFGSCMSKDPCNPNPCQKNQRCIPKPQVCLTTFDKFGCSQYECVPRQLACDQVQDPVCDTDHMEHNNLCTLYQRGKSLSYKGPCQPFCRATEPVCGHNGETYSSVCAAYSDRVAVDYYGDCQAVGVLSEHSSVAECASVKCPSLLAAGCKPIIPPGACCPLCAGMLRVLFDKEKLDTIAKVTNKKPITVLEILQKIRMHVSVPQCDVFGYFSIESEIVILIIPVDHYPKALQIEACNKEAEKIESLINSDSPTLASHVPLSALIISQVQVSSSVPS
substance,measurement,value
Flag-tagged short RECK isoform (natural protein),percent reduction of MMP9 co-immunoprecipitated with long RECK,88%
